According to IntAct's records for PubMed 15234987:

These substances were tested against fog1_mouse Zfpm1 (UniProt O35615).
Sequence of fog1_mouse Zfpm1 (O35615 whole entry): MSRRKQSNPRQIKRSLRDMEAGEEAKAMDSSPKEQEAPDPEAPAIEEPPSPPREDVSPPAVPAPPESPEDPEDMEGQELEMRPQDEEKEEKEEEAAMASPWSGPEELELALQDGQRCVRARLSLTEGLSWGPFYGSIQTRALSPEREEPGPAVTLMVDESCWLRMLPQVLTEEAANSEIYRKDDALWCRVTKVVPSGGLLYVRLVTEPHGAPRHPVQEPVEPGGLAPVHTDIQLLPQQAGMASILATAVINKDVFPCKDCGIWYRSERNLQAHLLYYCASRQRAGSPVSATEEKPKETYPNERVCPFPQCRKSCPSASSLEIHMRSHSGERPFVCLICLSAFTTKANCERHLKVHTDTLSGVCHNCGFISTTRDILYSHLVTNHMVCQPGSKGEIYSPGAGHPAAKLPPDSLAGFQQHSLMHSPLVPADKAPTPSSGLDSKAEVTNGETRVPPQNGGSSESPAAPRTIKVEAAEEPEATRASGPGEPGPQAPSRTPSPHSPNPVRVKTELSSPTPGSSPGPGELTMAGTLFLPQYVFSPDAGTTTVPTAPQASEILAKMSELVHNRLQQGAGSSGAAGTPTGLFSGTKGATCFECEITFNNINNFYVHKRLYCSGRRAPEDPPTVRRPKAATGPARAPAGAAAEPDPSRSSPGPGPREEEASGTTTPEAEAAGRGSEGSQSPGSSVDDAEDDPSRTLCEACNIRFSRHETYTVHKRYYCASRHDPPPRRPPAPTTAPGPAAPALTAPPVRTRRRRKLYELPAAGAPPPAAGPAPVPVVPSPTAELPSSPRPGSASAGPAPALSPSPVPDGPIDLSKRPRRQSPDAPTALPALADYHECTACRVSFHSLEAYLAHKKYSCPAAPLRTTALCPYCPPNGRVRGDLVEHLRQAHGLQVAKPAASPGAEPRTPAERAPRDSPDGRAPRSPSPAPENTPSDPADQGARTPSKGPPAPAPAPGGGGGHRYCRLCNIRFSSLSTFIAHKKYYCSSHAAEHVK

Sequence of Transforming acidic coiled-coil-containing protein 3 (Mus musculus), Q9JJ11 I625A;S626A (Q9JJ11 whole entry I625A/S626A): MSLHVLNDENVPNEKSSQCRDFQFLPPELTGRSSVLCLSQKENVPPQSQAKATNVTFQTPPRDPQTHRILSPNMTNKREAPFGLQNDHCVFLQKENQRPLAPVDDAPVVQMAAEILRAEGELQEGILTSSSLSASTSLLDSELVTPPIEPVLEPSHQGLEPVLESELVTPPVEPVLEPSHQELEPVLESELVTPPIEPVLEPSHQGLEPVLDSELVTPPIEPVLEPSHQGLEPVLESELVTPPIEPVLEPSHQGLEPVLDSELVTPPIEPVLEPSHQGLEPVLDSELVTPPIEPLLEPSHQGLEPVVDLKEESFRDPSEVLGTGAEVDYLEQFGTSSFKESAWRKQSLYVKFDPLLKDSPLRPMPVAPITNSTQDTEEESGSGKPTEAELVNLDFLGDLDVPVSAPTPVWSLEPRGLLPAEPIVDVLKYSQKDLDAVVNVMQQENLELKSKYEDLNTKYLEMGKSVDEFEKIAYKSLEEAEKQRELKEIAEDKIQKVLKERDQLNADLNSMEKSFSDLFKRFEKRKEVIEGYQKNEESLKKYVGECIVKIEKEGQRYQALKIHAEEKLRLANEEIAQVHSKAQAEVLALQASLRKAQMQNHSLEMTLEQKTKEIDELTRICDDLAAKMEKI
Sequence of Transforming acidic coiled-coil-containing protein 3 (Mus musculus), Q9JJ11 E629A;K630A (Q9JJ11 whole entry E629A/K630A): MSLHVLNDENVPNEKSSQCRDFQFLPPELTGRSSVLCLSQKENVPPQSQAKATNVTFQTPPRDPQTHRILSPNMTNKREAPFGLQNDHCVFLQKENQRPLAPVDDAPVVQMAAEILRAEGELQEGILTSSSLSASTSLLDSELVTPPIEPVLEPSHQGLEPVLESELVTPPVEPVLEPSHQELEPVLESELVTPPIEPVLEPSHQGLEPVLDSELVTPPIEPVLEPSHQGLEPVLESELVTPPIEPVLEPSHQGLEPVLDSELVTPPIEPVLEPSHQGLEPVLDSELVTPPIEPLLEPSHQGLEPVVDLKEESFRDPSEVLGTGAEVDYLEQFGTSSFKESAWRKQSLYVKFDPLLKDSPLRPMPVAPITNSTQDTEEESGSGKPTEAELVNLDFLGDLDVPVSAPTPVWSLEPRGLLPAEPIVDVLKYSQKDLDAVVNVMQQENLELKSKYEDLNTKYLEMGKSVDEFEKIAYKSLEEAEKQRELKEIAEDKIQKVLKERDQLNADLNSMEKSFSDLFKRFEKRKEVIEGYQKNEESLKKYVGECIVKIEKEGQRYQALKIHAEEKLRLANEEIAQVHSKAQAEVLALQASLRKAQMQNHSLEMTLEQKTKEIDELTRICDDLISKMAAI
Sequence of Transforming acidic coiled-coil-containing protein 3 (Mus musculus), Q9JJ11 D615A;E616A (Q9JJ11 whole entry D615A/E616A): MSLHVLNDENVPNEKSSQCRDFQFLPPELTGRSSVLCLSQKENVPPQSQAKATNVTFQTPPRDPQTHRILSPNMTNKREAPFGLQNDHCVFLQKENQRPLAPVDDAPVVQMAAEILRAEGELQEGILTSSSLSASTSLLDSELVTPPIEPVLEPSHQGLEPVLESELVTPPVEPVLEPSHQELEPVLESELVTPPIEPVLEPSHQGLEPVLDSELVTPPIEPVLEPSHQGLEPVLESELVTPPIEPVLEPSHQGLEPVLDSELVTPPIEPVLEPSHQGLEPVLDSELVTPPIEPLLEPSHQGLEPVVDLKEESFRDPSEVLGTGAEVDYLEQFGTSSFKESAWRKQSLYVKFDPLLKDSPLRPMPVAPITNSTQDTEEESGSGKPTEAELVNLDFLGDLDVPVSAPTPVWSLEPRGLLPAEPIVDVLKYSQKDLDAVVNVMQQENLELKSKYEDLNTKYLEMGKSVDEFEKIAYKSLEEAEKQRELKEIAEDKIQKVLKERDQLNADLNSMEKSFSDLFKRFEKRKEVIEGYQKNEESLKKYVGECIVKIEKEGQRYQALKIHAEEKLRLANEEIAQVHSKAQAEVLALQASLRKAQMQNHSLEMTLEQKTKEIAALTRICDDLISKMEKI
Sequence of Transforming acidic coiled-coil-containing protein 3 (Mus musculus), Q9JJ11 D622A;D623A (Q9JJ11 whole entry D622A/D623A): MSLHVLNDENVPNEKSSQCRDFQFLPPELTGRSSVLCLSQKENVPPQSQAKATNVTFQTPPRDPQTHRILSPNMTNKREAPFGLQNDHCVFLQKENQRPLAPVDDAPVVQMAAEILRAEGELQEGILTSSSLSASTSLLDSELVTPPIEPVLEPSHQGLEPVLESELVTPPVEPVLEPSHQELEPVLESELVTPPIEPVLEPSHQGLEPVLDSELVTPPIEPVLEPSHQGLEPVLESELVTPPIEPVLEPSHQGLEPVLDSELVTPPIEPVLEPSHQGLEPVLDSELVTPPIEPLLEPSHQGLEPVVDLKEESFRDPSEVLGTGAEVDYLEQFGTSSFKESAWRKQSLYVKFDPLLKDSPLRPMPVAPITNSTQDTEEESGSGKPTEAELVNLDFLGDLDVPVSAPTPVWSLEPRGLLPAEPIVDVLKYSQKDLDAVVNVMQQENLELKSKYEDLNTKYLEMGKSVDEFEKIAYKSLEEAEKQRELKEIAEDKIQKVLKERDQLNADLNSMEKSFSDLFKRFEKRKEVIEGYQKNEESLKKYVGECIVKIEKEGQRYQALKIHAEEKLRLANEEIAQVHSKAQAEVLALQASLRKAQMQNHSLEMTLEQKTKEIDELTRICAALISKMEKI
Sequence of Transforming acidic coiled-coil-containing protein 3 (Mus musculus), Q9JJ11 R619A;I620A (Q9JJ11 whole entry R619A/I620A): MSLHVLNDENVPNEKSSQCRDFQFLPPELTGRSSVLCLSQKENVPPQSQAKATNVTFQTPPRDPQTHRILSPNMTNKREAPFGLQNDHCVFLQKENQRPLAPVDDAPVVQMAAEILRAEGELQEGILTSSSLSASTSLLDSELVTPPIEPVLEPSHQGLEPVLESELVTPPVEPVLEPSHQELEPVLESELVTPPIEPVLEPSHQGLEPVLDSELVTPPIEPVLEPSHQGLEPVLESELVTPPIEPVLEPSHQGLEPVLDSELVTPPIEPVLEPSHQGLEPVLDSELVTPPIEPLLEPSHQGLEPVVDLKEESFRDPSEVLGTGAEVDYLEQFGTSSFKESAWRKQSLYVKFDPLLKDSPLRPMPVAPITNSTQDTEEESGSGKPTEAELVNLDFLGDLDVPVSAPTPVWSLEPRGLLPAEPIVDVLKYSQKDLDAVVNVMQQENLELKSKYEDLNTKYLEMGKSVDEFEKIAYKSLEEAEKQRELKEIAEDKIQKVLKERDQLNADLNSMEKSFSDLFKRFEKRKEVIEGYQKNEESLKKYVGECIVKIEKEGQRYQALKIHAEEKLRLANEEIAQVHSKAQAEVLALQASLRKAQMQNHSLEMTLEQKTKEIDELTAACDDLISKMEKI

effect of a mutation on the interaction	Substance
decreasing interaction	Transforming acidic coiled-coil-containing protein 3 (Mus musculus), Q9JJ11 D622A;D623A
decreasing interaction	Transforming acidic coiled-coil-containing protein 3 (Mus musculus), Q9JJ11 I625A;S626A
decreasing interaction	Transforming acidic coiled-coil-containing protein 3 (Mus musculus), Q9JJ11 D615A;E616A
decreasing interaction	Transforming acidic coiled-coil-containing protein 3 (Mus musculus), Q9JJ11 E629A;K630A
decreasing interaction	Transforming acidic coiled-coil-containing protein 3 (Mus musculus), Q9JJ11 R619A;I620A
